Source: publication PMC4837325, “Arabidopsis HIGH PLOIDY2 Sumoylates and Stabilizes Flowering Locus C through Its E3 Ligase Activity” (Frontiers in Plant Science, 2016)

Biological target: T1, GST-HPY2 (Arabidopsis thaliana, UniProt Q8GYH7 1-249)
T1 construct: HIGH PLOIDY2 (HPY2), E3 SUMO ligase of Arabidopsis, full-length cDNA cloned into pGEX4T-1; also called HIGH PLOIDY2; AtHPY2; source: E. coli BL21, purified (glutathione resin)
T1 sequence (looked up): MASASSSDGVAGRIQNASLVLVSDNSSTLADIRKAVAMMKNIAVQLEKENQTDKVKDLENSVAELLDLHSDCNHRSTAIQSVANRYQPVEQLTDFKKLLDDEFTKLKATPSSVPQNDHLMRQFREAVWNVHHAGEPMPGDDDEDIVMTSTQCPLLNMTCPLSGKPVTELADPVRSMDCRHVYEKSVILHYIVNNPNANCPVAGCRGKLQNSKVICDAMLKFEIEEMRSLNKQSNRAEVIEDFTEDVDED
Experiment: pull-down; in vitro GST pull-down, 2 ug each of GST-HPY2 bait and His6-FLC prey; His6-FLC detected by Western blot with anti-His antibody
Conditions: both partners purified

B1: His6-FLC (natural protein, Arabidopsis thaliana, UniProt Q9S7Q7 1-196, looked up)
chain: MGRKKLEIKRIENKSSRQVTFSKRRNGLIEKARQLSVLCDASVALLVVSASGKLYSFSSGDNLVKILDRYGKQHADDLKALDHQSKALNYGSHYELLELVDSKLVGSNVKNVSIDALVQLEEHLETALSVTRAKKTELMLKLVENLKEKEKMLKEENQVLASQMENNHHVGAEAEMEMSPAGQISDNLPVTLPLLN
notes: Flowering Locus C (FLC), MADS-box transcription factor of Arabidopsis, full-length cDNA cloned into pET28a; also called Flowering Locus C; source: E. coli BL21, purified (Ni2+-NTA resin)
B1: binds.
